Data reported in publication PMC6319348, “Phase I/II clinical trial of the targeted chemotherapeutic drug, folate-tubulysin, in dogs with naturally-occurring invasive urothelial carcinoma” (Oncotarget, 2018).
Where “and” joins values, the source holds several entries; their conditions need not be identical. Identical values can stand only once. Entries after “also recorded” stand apart in the source; their conditions may differ. Like-named read-outs stand apart in the source and are kept apart here. Marks after values point to notes of the source that are not given here.

Key:
Assay type in all cases: in vivo, dog
[1] = Phase I dose escalation: safety, tolerability, MTD (VCOG-CTCAE); settings: dog, in vivo; intravenous, every two weeks; dogs with iUC; read-out: maximum tolerated dose (MTD)
Method: (§1) […] […] The 10 pet dogs in the pilot study included six neutered male dogs and four spayed female dogs of a variety of breeds and weighing between 5 and 46 kg.
(§2) Dogs in dosage cohorts were enrolled using a 3+3 trial design. Inter-patient and intra-patient dose escalation was permitted. Drug tolerability was assessed by owner questionnaire, physical exam, CBC the day of treatment and seven days following treatment, and biochemistry panel at four-week intervals. Toxicity was graded using VCOG-CTCAE criteria. The EC0531 dose was increased by 0.02 mg/kg in each subsequent dose cohort if no dose limiting toxicity (DLT) was recorded. DLT was defined as an adverse event (AE) > grade 2. When a grade 3 AE occurred, the cohort was expanded to at least six dogs including six new dogs, i.e. six dogs that had not received prior EC0531 at lower doses. If more than one grade 3 AE or any grade 4 or 5 AE occurred, then six dogs were enrolled at the previous cohort. The MTD was defined as the highest dose tolerated by six dogs with no more than one grade 3 AE and no grade 4–5 AE. Intra-patient dose escalation was permitted if no AEs had occurred after two doses of the drug had been administered.
(§3) In individual dogs, the EC0531 dose was reduced by 10% if grade 2 toxicity was noted, and by 20% if grade 3 or higher toxicity was noted. Treatment was delayed by one week if the neutrophil count was <3,000/mm^3 or platelet count <100,000/mm^3 the day treatment was due.

[2] = test system: dogs with naturally-occurring invasive urothelial carcinoma (iUC); assay: as above
Method: as §1, §2, §3

[3] = Drug concentration in iUC tissue samples; settings: three dogs, approximately three hours after treatment, 0.28 mg/kg EC0531
Method: (§4) Tubes were centrifuged, and plasma collected and stored at –80° C.
(§5) Internal standard was added to all samples prior to extraction using a 200 µL SLE+ plate (Biotage, Charlotte, NC, USA). The eluate was collected, evaporated, and reconstituted with acetone prior to sealing and heating the collection plate for 1 hour. After incubation, the extracts were again evaporated and finally reconstituted prior to injection. The extracted samples were injected into a UPLC/MS/MS system (Waters) using a BEH shield RP18 reverse phase column (Waters) and eluted under isocratic conditions. […] Incurred sample concentrations were then back-calculated against a calibration curve prepared in blank dog plasma. […] Samples were homogenized in buffer with a bead beater, or hand held homogenizer. Aliquots (100 µL) of each sample were spiked with 400 µL internal standards in acetone. The extracts were sealed and incubated at 55° C for 1 hour. The extracts were then evaporated to remove acetone, and reconstituted. Finally, reconstituted samples were analyzed by injection into a UPLC-MS/MS system (Waters) to evaluate concentrations of EC0531 and metabolites against a prepared calibration curve.

[4] = Plasma pharmacokinetic analysis
Method: Plasma pharmacokinetic analysis was conducted in six dogs sequentially enrolled in the trial. Blood was collected at 0, 2, 10, and 30 minutes, and at 1, 2, 8, and 24 hours after treatment.
as §4
For the analysis of EC0531 concentrations in plasma, the EC0531 was extracted from 100 µL of dog plasma by 96-well solid phase extraction (SPE). Internal standard was added to all samples prior to extraction using a Strata X-A SPE plate (Phenomenex, Torrance, CA, USA). The eluate was collected, evaporated, and finally reconstituted with 85/15 water/acetonitrile with 40 mM mannitol. The extracted samples were injected into a UPLC/MS/MS system (Waters, Milford, MA, USA) using a BEH C18 reverse phase column (Waters) implementing a mobile phase gradient. Incurred sample concentrations were then back-calculated against a calibration curve prepared in blank dog plasma.
as §5

[5] = dog, plasma, iv, 0.28 mg/kg, Avg of six dogs, EC0531 in plasma, single 0.28 mg/kg IV

CCCC(=O)OCN(C(=O)[C@@H](NC(=O)[C@H]1CCCCN1C)[C@@H](C)CC)[C@H](C[C@@H](OC(C)=O)c1nc(C(=O)N[C@@H](Cc2ccc(O)cc2)C[C@H](C)C(=O)NNC(=O)OCCSSC[C@H](NC(=O)[C@H](CCC(=O)NC[C@H](O)[C@@H](O)[C@H](O)[C@H](O)CO)NC(=O)CC[C@H](NC(=O)[C@H](CCC(=O)NC[C@H](O)[C@@H](O)[C@H](O)[C@H](O)CO)NC(=O)CC[C@H](NC(=O)[C@H](CCC(=O)NC[C@H](O)[C@@H](O)[C@H](O)[C@H](O)CO)NC(=O)CC[C@H](NC(=O)c2ccc(NCc3cnc4nc(N)[nH]c(=O)c4n3)cc2)C(=O)O)C(=O)O)C(=O)O)C(=O)O)cs1)C(C)C [EC0531]
MTD [1]: 0.26 mg/kg | tolerability of treatment at the MTD ([2]; 0.26 mg/kg every two weeks): well tolerated | withdrawal from the study due to AE / toxicity ([2]; 28 dogs): No dog withdrew; also recorded: no dogs were removed | toxicity noted ([2]; 28 dogs, 311 doses): neutropenia, anorexia, or lethargy | overall tolerability ([2]; 28 dogs, total of 311 doses): generally well tolerated | infusion reaction ([2]; a single dog, transient): hypotension, compensatory tachycardia, and subsequent syncopal episode | Adverse events defined by VCOG-CTCAE ([2]; dose 0.28 mg/kg, 10 dogs, 63 doses): 1 dog with G1 vomiting^a 1 dog with G1lethargy and G3 weight loss (DLT)^a 1 dog with G4 neutropenia (DLT)^b 1 dog with G4 infusion reaction (DLT)^b | Adverse events defined by VCOG-CTCAE ([2]; dose 0.34 mg/kg, 1 dog, 5 doses): G3 anorexia and 1 dog with G3 anorexia (DLT) | Adverse events defined by VCOG-CTCAE ([2]; dose 0.18 (mg/kg), 1 dog, 6 doses): 1 dog with G1 anorexia | Adverse events defined by VCOG-CTCAE ([2]; dose 0.20 (mg/kg), 4 dogs, 14 doses): 1 dog with G2 anorexia | Adverse events defined by VCOG-CTCAE ([2]; dose 0.22 (mg/kg), 4 dogs, 10 doses): 1 dog with G1 lethargy | Adverse events defined by VCOG-CTCAE ([2]; dose 0.24 (mg/kg), 4 dogs, 16 doses): 1 dog with G2 neutropenia | Adverse events defined by VCOG-CTCAE ([2]; dose 0.26 (mg/kg), 6 dogs, 33 doses): 1 dog with G1 lethargy 1 dog with G1 vomiting and G1 neutropenia 1 dog with G2 neutropenia 1 dog with G3 neutropenia (DLT) and G2 diarrhea | Adverse events defined by VCOG-CTCAE ([2]; dose 0.30 (mg/kg), 2 dogs, 15 doses): 1 dog with G3 neutropenia (DLT) | Adverse events defined by VCOG-CTCAE ([2]; dose 0.32 (mg/kg), 1 dog, 2 doses): No adverse events observed | toxicity observed at doses higher than the MTD ([2]; doses above 0.26 mg/kg every two weeks): grade 3-4 neutropenia and gastrointestinal toxicity | thrombocytopenia ([2]; one dog, heavily pretreated with chemotherapy, chronically low platelet counts): grade 2 thrombocytopenia | outcome of weekly dose interval ([2]; pilot study in pet dogs): suspended due to neutropenia | neutrophil nadir ([2]; pilot study in pet dogs with iUC, n = 10 dogs): four to seven days after treatment | outcome of twice weekly dosing ([2]; pilot study in pet dogs, dosing not continued): dose limiting-neutropenia and anorexia | level at 3 h ([3]; dog, iUC tumor tissue, iv, read-out: concentration of EC0531 in iUC tissues): 3.9 ng/mL | concentration of EC0531 in iUC tissues [3]: below the level of detection | Tmax ([4]; Norwegian Elkhound, dog, individual dogs #1-6 (c0), EC0531 in plasma, single 0.28 mg/kg IV): 2 min | AUC(0-inf) [4, 5]: 1900 ng·h/mL | AUC(0-t) [4, 5]: 1890 ng·h/mL | C0 [4, 5]: 3990 ng/mL | Cmax [4, 5]: 3490 ng/mL | clearance [4, 5]: 2.78 mL/min/kg | Vd ([4]; dog, plasma, iv, 0.28 mg/kg, Avg of six dogs, EC0531 in plasma, single 0.28 mg/kg IV, read-out: Vz): 0.102 L/kg | half-life ([4]; dog, plasma, iv, 0.28 mg/kg, Avg of six dogs, EC0531 in plasma, single 0.28 mg/kg IV, read-out: t1/2): 24.7 min | half-life ([4]; dog, plasma, iv, 0.28 mg/kg, dogs, 0.28 mg/kg IV, biphasic pharmacokinetic behavior, read-out: elimination half-life): ~25 min | half-life ([4]; dog, plasma, iv, 0.28 mg/kg, individual dogs #1-6 (c0), EC0531 in plasma, single 0.28 mg/kg IV, read-out: t1/2): 22 min | Tmax ([4]; dog, Avg of six dogs, EC0531 in plasma, single 0.28 mg/kg IV): 2 min | peak plasma drug concentration relative to concentrations required to kill FR-expressing tumor cells in vitro ([4]; dogs receiving 0.28 mg/kg, in vitro concentrations from ref 14): approximately 700 times
